From US20250304707A1
Substitutions are numbered along the chain they refer to.

T1: human APRIL/TNFSF13 (human), O75888
T1 chain: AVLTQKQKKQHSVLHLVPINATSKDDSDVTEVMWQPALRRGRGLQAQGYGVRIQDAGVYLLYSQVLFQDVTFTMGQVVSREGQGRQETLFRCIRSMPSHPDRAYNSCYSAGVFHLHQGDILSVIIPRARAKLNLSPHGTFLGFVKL

B1: human BCMA (soluble analyte of Examples 8 and 14), Q02223 1-54 (receptor, UniProt Q02223 1-54, looked up)
chain: MLQMAGQCSQNEYFDSLLHACIPCQLRCSSNTPPLTCQRYCNASVTNSVKGTNA
B2: 01-024 (scFv) (scFv, part only; not given: linker, domain order, Myc-His tags, V domains shown, not shown: another chain or arm of the molecule; small tags and cut ends)
VH: EVQLVQSGGGLVQSGGSLRVSCAASGFTFSSGLMSWVRQAPGKGFEWVSCYNGGSDRAGYTDSVKGRFTISRDNAKNTLYLQMNSLKPEDTAVYYCARYIANSGTYYWDYWGQGTTVTVSS
VL: QAVLTQPPSASGTPGQRVSISCSGGISNIGSNIVNWYQHLPGTAPKLLIYSGNQRPSGVPDRFSGSKSGTSASLAISGLQSEDEADYYCSSWDSDLRNWVFGGGTKLTVL
B3: 01-030 (scFv) (scFv, part only; not given: linker, domain order, Myc-His tags, V domains shown, not shown: another chain or arm of the molecule; small tags and cut ends)
VH: B2 VH with S14P, T28S, C50G, Y60F, T61A, K65E, T116L
VL: QSALTQPPSASGTPGQRVTISCSGSISNIGSNTVNWYQHLPGTAPKLLIYNHNQRPSGVPDRFSGSTSGTSASLAISGLQSEDEADYFCATWDDSLSAWLFGGGTKLTVL
B4: 01-027 (scFv) (scFv, part only; not given: linker, domain order, Myc-His tags, V domains shown, not shown: another chain or arm of the molecule; small tags and cut ends)
VH: B2 VH with C50G
VL: B2 VL
B5: 01-026 (scFv) (scFv, part only; not given: linker, domain order, Myc-His tags, V domains shown, not shown: another chain or arm of the molecule; small tags and cut ends)
VH: B2 VH with C50G
VL: QSVLTQPPSVSGAPGQRVTISCTGSSSNIGAGYDVHWYQQLPGTAPKLVIYGNTNRPSGVPDRFSGSKSGTSASLAISGLQSEDEADYYCAAWDDSLNGWVFGGGTKLTVL
B6: 01-025 (scFv) (scFv, part only; not given: linker, domain order, Myc-His tags, V domains shown, not shown: another chain or arm of the molecule; small tags and cut ends)
VH: B2 VH with C50G
VL: QPVLTQPPSVSEAPRQRVTISCSGSSSNIGNNAVNWYQQLPGKAPKLLIYSTNQRPSGVPDRFSGSKSGTSASLAISGLQSEDEADYYCAAWDDRVSAWLFGGGTKLTVL

How the values were obtained:
[1] = molecular target: T1, human APRIL/TNFSF13 (human), O75888; test: BLI (Octet RED384), APRIL/TNFSF13 on AR2G sensors, 71 nM human BCMA analyte, no antibody; details: remark: other sources report otherwise
[2] = molecular target: biotinylated human BCMA (human) (UniProt Q02223); test: BLI (Octet RED384), biotinylated human BCMA on SAX sensors, scFv 1200 nM analyte, 1:1 model

Row | Binder | Response [1] [nm] | Kd [2] [nM] | Response [2] [nm] | koff [2] [s⁻¹] | kon [2] [M⁻¹ s⁻¹]
1 | B1 | 0.659 | – | – | – | –
2 | B2 | – | 1.5 | 0.174 | 0.00057 | 380000
3 | B3 | – | 8.42 | 0.172 | 0.000939 | 112000
4 | B4 | – | 3.38 | 0.171 | 0.00096 | 284000
5 | B5 | – | 59.6 | 0.115 | 0.00248 | 41700
6 | B6 | – | 15.5 | 0.183 | 0.00128 | 82600
